Assay [1] addresses T1, human LAG-3 (human, UniProt P18627 23-450, limits assumed).
T1 construct: Selections used human LAG-3-Fc, human LAG-3-6His, a 30 aa LAG-3 peptide and/or cells with cynomolgus LAG-3; also called CD223
T1 sequence (looked up): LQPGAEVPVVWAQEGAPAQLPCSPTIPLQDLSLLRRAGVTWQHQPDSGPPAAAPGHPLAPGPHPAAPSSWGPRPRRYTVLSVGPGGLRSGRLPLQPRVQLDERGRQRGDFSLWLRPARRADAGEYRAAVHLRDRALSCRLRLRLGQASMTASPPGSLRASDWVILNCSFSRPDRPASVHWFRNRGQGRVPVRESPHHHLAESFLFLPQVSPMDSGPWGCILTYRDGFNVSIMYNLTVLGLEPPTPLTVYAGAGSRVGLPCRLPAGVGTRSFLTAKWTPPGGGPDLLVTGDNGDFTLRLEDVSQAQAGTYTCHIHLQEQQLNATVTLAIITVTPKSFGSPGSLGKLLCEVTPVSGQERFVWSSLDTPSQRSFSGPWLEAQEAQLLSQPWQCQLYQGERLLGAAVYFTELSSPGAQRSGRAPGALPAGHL
The experiment in a line: Fab phage display selection; periplasmic extracts screened by ELISA or flow cytometry. The source says:
Anti-LAG-3 antibodies were identified by generation and selection of an immunized Fab phage display library. […] Per mouse, a Fab library was then generated by random-primed cDNA using total RNA as a template to amplify variable regions from mouse antibody genes. Heavy and kappa chain amplicons were combined and cloned into phagemid vectors. […] The 30 amino acid human LAG-3 peptide is a biotinylated peptide comprising the amino acid sequence of […] (SEQ ID NO: 199). Periplasmic extracts of selected Fab clones were then screened by ELISA or flow cytometry. Antibody sequencing and off-rate analysis were then performed on anti-LAG-3 Fabs.

Assay [2] deals with T2, recombinant human LAG-3 (human, UniProt P18627 23-450, limits assumed).
T2 sequence (looked up): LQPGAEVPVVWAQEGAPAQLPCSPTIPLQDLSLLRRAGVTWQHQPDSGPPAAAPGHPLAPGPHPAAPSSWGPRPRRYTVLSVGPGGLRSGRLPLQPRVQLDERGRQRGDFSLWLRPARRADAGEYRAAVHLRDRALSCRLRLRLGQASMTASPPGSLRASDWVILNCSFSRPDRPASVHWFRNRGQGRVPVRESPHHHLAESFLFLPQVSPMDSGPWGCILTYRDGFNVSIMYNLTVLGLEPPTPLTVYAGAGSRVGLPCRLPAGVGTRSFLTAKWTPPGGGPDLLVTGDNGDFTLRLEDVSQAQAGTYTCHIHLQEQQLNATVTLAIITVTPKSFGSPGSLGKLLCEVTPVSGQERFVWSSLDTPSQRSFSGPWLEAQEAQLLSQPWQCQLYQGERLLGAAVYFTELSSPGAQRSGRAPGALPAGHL
The experiment in a line: surface plasmon resonance (data not shown).

B1: P05E03 Fab (Fab, V domains shown)
VH: QVQLKESGAELVKPGASVELSCTASGFNIRDTYMYWVKQRPEQGLEWIGRIDPANGNTKFDPKFQDRATMTADTSSNTAYLQLSSLTSEDTAVYYCTTYFYRYDVGGFDYWGQGTTLTVS
VL: EIVLTQSPALMAASPGEKVTITCSVSSSISSSNLHWYQQKSGTSPKLWIYGTSNLASGVPVRFSGSGSGTSYSLTISSMEAEDAATYYCQQWSSYPFTFGSGTKLEIK
notes: Murine Fab, periplasmic extract
Turning to B1, the binding result in assay [1] was “binds”.

B2: P05E01 Fab (Fab, V domains shown)
VH: DVQLVESGAELVKPGASVKLSCTASGFTIKDTYIHWVKQRPEQGLEWIGEIDPANGNTKYDPKFQGKATITADTSSNTAYLQLSSLTSEDTAVYYCATYYYRYDVGGFDYWGQGTTLTVS
VL: DIVLTQSPALMAASPGEKVTITCSVSSSISSSNLHWFQQKSGTSPKLWIYGTSNLASGVPVRFSGSGSGTSYSLTISNMEAEDAATYYCQQWNSYPLTFGAGTKLELK
notes: as for B1
As for B2, the binding result in assay [1] is recorded as “binds”.

B3: P13B02-21 (antibody, IgG1, V domains shown)
VH: QVQMKQSGAEVVKPGASVKVSCTASGFNIKDTYIHWVRQAPGQGLEWIGEIDPANDNTKYDPKFQGRVTITADTSSNTVYLQLSSLRSEDTAVYYCATYYYRYDVGGFDYWGQGTLVTVSS
VL: EIVLTQSPGTLSLSPGERATLSCSVSSSISSSNLHWYQQKPGQAPRLLIYGTSNLASGIPDRFSGSGSGTDFTLTISRLEPEDFAVYYCQQWSSYPFTFGQGTKVEIK
notes: Humanized; generated as full length IgG1
Take B3: the binding result in assay [2] is reported as “binds”.

B4: P13B02-32 (antibody, IgG1, V domains shown)
VH: QVQMKQSGAEVKKPGASVKVSCKASGFNIKDTYIHWVRQAPGQGLEWMGEIDPANDNTKYDPKFQGRVTITADTSTSTVYMELSSLRSEDTAVYYCATYYYKYDVGGFDYWGQGTLVTVSS
VL: EIVLTQSPGTLSLSPGERATLSCSVSSSISSSNLHWYQQKPGQAPRLLIYGTSNLASGIPDRFSGSGSGTDFTLTISRLEPEDFAVYYCQQWSSYPFTFGQGTKVEIK
notes: as for B3
As to B4, the binding result in assay [2] is “binds”.

B5: P13B02-22 (antibody, IgG1, V domains shown)
VH: QVQMKQSGAEVVKPGASVKVSCTASGFNIKDTYIHWVRQAPGQGLEWIGEIDPANDNTKYDPKFQGRVTITADTSSNTVYLQLSSLRSEDTAVYYCATYYYRYDVGGFDYWGQGTLVTVSS
VL: EIVLTQSPGTLSLSPGERATLSCSVSSSISSSNLHWYQQKPGQAPRLLIYGTSNLASGIPDRFSGSGSGTSYTLTISRLEPEDFAVYYCQQWSSYPFTFGQGTKVEIK
notes: as for B3
Turning to B5, in assay [2], the binding result is “binds”.

B6: P13B02-35 (antibody, IgG1, V domains shown)
VH: QVQLKQSGAEVKKPGASVKVSCTASGFNIKDTYIHWVRQAPGQGLEWMGEIDPANDNTKYDPKFQGRVTITADTSTSTVYMELSSLRSEDTAVYYCATYYYKYDVGGFDYWGQGTLVTVSS
VL: EIVLTQSPGTLSLSPGERATLSCSVSSSISSSNLHWYQQKPGQAPRLLIYGTSNLASGIPDRFSGSGSGTDFTLTISRLEPEDFAVYYCQQWSSYPFTFGQGTKVEIK
notes: as for B3
Take B6: in assay [2], the binding result was “binds”.

B7: P13B02-37 (antibody, IgG1, V domains shown)
VH: QVQMKQSGAEVKKPGASVKVSCTASGFNIKDTYIHWVRQAPGQGLEWMGEIDPANDNTKYDPKFQGRVTITADTSSNTVYMELSSLRSEDTAVYYCATYYYKYDVGGFDYWGQGTLVTVSS
VL: EIVLTQSPGTLSLSPGERATLSCSVSSSISSSNLHWYQQKPGQAPRLLIYGTSNLASGIPDRFSGSGSGTDFTLTISRLEPEDFAVYYCQQWSSYPFTFGQGTKVEIK
notes: as for B3
Regarding B7, in assay [2], the binding result was “binds”.

B8: P13B02-34 (antibody, IgG1, V domains shown)
VH: QVQLKQSGAEVKKPGASVKVSCKASGFNIKDTYIHWVRQAPGQGLEWMGEIDPANDNTKYDPKFQGRVTITADTSTSTVYMELSSLRSEDTAVYYCATYYYKYDVGGFDYWGQGTLVTVSS
VL: EIVLTQSPGTLSLSPGERATLSCSVSSSISSSNLHWYQQKPGQAPRLLIYGTSNLASGIPDRFSGSGSGTDFTLTISRLEPEDFAVYYCQQWSSYPFTFGQGTKVEIK
notes: as for B3
For the molecule B8, in assay [2], the binding result was “binds”.

B9: P13B02-23 (antibody, IgG1, V domains shown)
VH: QVQMKQSGAEVVKPGASVKVSCTASGFNIKDTYIHWVRQAPGQGLEWIGEIDPANDNTKYDPKFQGRVTITADTSSNTVYLQLSSLRSEDTAVYYCATYYYRYDVGGFDYWGQGTLVTVSS
VL: EILLTQSPGTLSLSPGERATLSCSVSSSISSSNLHWFQQKPGQAPRLLIYGTSNLASGIPDRFSGSGSGTSYTLTISRLEPEDFAVYYCQQWSSYPFTFGQGTKVEIK
notes: as for B3
Regarding B9, the binding result in assay [2] is recorded as “binds”.

B10: P13B02-24 (antibody, IgG1, V domains shown)
VH: QVQMKQSGAEVVKPGASVKVSCTASGFNIKDTYIHWVRQAPGQGLEWIGEIDPANDNTKYDPKFQGRVTITADTSSNTVYLQLSSLRSEDTAVYYCATYYYRYDVGGFDYWGQGTLVTVSS
VL: EILLTQSPGTLSLSPGERATLSCSVSSSISSSNLHWFQQKPGQAPRLWIYGTSNLASGVPDRFSGSGSGTSYTLTISRLEPEDFAVYYCQQWSSYPFTFGQGTKVEIK
notes: as for B3
Consider B10, for which, in assay [2], the binding result was “binds”.

B11: P13B02-33 (antibody, IgG1, V domains shown)
VH: QVQMKQSGAEVKKPGASVKVSCTASGFNIKDTYIHWVRQAPGQGLEWMGEIDPANDNTKYDPKFQGRVTITADTSTSTVYMELSSLRSEDTAVYYCATYYYKYDVGGFDYWGQGTLVTVSS
VL: EIVLTQSPGTLSLSPGERATLSCSVSSSISSSNLHWYQQKPGQAPRLLIYGTSNLASGIPDRFSGSGSGTDFTLTISRLEPEDFAVYYCQQWSSYPFTFGQGTKVEIK
notes: as for B3
Turning to B11, the binding result in assay [2] is recorded as “binds”.

B12: P13B02-31 (antibody, IgG1, V domains shown)
VH: QVQMVQSGAEVKKPGASVKVSCTASGFNIKDTYIHWVRQAPGQGLEWMGEIDPANDNTKYDPKFQGRVTITADTSTSTVYMELSSLRSEDTAVYYCATYYYKYDVGGFDYWGQGTLVTVSS
VL: EIVLTQSPGTLSLSPGERATLSCSVSSSISSSNLHWYQQKPGQAPRLLIYGTSNLASGIPDRFSGSGSGTDFTLTISRLEPEDFAVYYCQQWSSYPFTFGQGTKVEIK
notes: as for B3
B12: the binding result in assay [2] is reported as “binds”.

B13: P13B02-28 (antibody, IgG1, V domains shown)
VH: QVQLVQSGAEVKKPGASVKVSCKASGFNIKDTYIHWVRQAPGQGLEWMGEIDPANDNTKYDPKFQGRVTITADTSTSTVYMELSSLRSEDTAVYYCATYYYKYDVGGFDYWGQGTLVTVSS
VL: EIVLTQSPGTLSLSPGERATLSCSVSSSISSSNLHWYQQKPGQAPRLLIYGTSNLASGIPDRFSGSGSGTDFTLTISRLEPEDFAVYYCQQWSSYPFTFGQGTKVEIK
notes: as for B3
For the molecule B13, the binding result in assay [2] is reported as “binds”.

B14: P13B02-29 (antibody, IgG1, V domains shown)
VH: QVQLVQSGAEVKKPGASVKVSCTASGFNIKDTYIHWVRQAPGQGLEWMGEIDPANDNTKYDPKFQGRVTITADTSTSTVYMELSSLRSEDTAVYYCATYYYKYDVGGFDYWGQGTLVTVSS
VL: EIVLTQSPGTLSLSPGERATLSCSVSSSISSSNLHWYQQKPGQAPRLLIYGTSNLASGIPDRFSGSGSGTDFTLTISRLEPEDFAVYYCQQWSSYPFTFGQGTKVEIK
notes: as for B3
As for B14, in assay [2], the binding result is “binds”.

B15: P13B02-30 (antibody, V domains shown)
VH: QVQMVQSGAEVKKPGASVKVSCKASGFNIKDTYIHWVRQAPGQGLEWMGEIDPANDNTKYDPKFQGRVTITADTSTSTVYMELSSLRSEDTAVYYCATYYYKYDVGGFDYWGQGTLVTVSS
VL: EIVLTQSPGTLSLSPGERATLSCSVSSSISSSNLHWYQQKPGQAPRLLIYGTSNLASGIPDRFSGSGSGTDFTLTISRLEPEDFAVYYCQQWSSYPFTFGQGTKVEIK
notes: Humanized full length IgG1; made in three versions (G1m17; G1m17 N297A; G1m3 N297A)
For B15, the binding result in assay [2] is recorded as “binds”.

B16: P13B02-36 (antibody, IgG1, V domains shown)
VH: QVQLVQSGAEVKKPGASVKVSCKASGFNIKDTYIHWVRQAPGQGLEWMGEIDPANDNTKYDPKFQGRVTITADTSSNTVYMELSSLRSEDTAVYYCATYYYKYDVGGFDYWGQGTLVTVSS
VL: EIVLTQSPGTLSLSPGERATLSCSVSSSISSSNLHWYQQKPGQAPRLLIYGTSNLASGIPDRFSGSGSGTDFTLTISRLEPEDFAVYYCQQWSSYPFTFGQGTKVEIK
notes: as for B3
Regarding B16, the binding result in assay [2] is “binds”.

The record behind these values is US20250206818A1 (AGENUS, published 2025).
